# Key:
# [1] = test system: myosin light chain (MLC) phosphorylation in HMVECs; assay: MLC phosphorylation assay (Western blot); type: cell-based, human; conditions: for effect on Ang-2-induced phosphorylation of MLC: inhibitor 10 μM
# Protocol: After signal starvation with 0.25% FBS EBM-2 for 24 h, cells were treated with 100 ng/ml Ang-2 or vehicle for 0, 1, 3, and 6 hours. Phosphorylated myosin light chain (MLC-p) (phospho-serine 19) and GAPDH were detected by Western blot analysis. For human subject serum effects on HMVECs, serum was diluted to 5% with EBM-2 and filtered with low protein binding PVDF membrane (0.22 μm, Millipore Corp, Bedford, Mass.). Anti-MLC-phospho-serine-19 Ab was obtained from Abcam Inc.
# [2] = test system: HMVEC monolayers; assay: Immunofluorescence of endothelial architecture (F-actin, VE-cadherin); type: cell-based, human; conditions: for reversal of Ang-2 induced thick actin stress fibers and paracellular gaps: Ang-2 100 ng/ml, inhibitor 10 μM, 5 hours
# Protocol: HMVEC were grown to confluence on glass coverslips coated with 1% gelatin. The cells were fixed for 10 minutes in 4% paraformaldehyde in PBS, incubated for 5 min in 0.5% Triton X-100 in PBS. After blocking, the monolayers were processed for staining with anti-VE-cadherin monoclonal antibody (BD Pharmingen, San Diego, Calif.) and Alexa Fluoro 488 goat anti-mouse IgG, rhodamine phalloidin (Molecular Probe, Eugene, Oreg.) for F-actin staining and TOPRO-3-iodine (Molecular Probe) for nuclear staining. Fluorescence images were obtained using a Bio Rad MRC confocal fluorescence microscope. For human subject serum experiments, serum was diluted to 10% with EBM-2 and filtered with low protein binding PVDF membrane (0.22 μm, Millipore Corp) prior to application on endothelial cell monolayers.
# [3] = test system: healthy adult mice; assay: Lung wet-to-dry weight ratio; type: in vivo, mouse; conditions: Ang-2 treatment for 16 hours
# Protocol: Lung wet weight (W) was determined immediately after removal of the right lung. Lung dry weight (D) was determined after the lung had been dried in an oven at 50° C. for 24 hours. The W/D ratio was calculated by dividing the wet weight by the dry weight.
# [4] = test system: healthy adult mice; assay: Lung histology after systemic Ang-2; type: in vivo, mouse; conditions: 3 hour after systemic Ang-2 administration
# Description: Lungs were harvested, fixed in 10% formalin, embedded in paraffin, sectioned, and stained with hematoxylin and eosin.
# [5] = test system: Tie-2; assay: Tie-2 phosphorylation (immunoprecipitation and Western blot); type: cell-based, human; conditions: HMVECs stimulated with Ang-2 100 ng/ml
# Protocol: 200 μg of total protein were incubated with anti-Tie2 antibody for 3 hours, followed by incubation with protein A sepharose (Zymed, San Francisco, Calif.) for 2 hours at 4° C. After washing the beads, proteins were eluted by heating in SDS-sample buffer and detected by Western blot analysis with Anti-phospho-tyrosine (clone 4G10, Upstate Cell Signaling Solutions) as described before.
# [6] = test system: HMVEC monolayer; assay: FITC-albumin permeability assay; type: cell-based, human; conditions: Ang-2 400 ng/ml, 8 hours
# Protocol: HMVEC monolayer permeability was determined with the use of FITC-labeled bovine serum albumin (Sigma) as described elsewhere (Tinsley et al., Am. J. Physiol Cell Physiol. 279: C1285-1289 (2000)). Coster Transwell membranes (Corning Inc. Corning, N.Y.) were coated with fibronectin and cells were grown until confluence. Vehicle or Ang-2 (400 ng/ml) with FITC-albumin (final 1 mg/ml) was added to the luminal chamber for 8 hours, and samples were taken from both the luminal and abluminal chamber for fluorometry analysis. The readings were converted with the use of a standard curve to albumin concentration. These concentrations were then used in the following equation to determine the permeability coefficient of albumin (Pa).
# where [A] is abluminal concentration; t is time in seconds; A is area of membrane in cm2; V is volume of abluminal chamber; and [L] is luminal concentration. siRNA transfection of endothelial cells: HMVECs were seeded on 10 cm dishes for Western blot (or on 1% gelatin-coated coverslips for immunohistochemistry experiments) 24 hour before experiments. […] of validated, annealed small interfering RNA (siRNA) (Ambion, Inc. Austin Tex.) directed to human Tie-2 was transfected using silentFect Lipid reagent (Bio-Rad) according to manufacturer's instructions. Three days after transfection, cells were used for experiments. […]
# [7] = test system: healthy adult mice; assay: Evans blue permeability assay after systemic Ang-2; type: in vivo, mouse; conditions: Ang-2 10 μg i.p., 16 hours
# Protocol: Mice were injected with 10 μg of Ang-2 or vehicle intraperitoneal (i.p.) and, after 16 hours, were anesthetized with Avertin (2,2,2-tribromoethanol). 2% Evans blue (50 μl) was then injected into the retro-orbital sinus. (In preliminary experiments with control mice, n=6, we confirmed that the retro-orbital sinus provided a route of intravascular injection that allowed near-100% delivery of Evans blue in a reproducible fashion.) 10 minutes after Evans blue injection, mice were sacrificed and perfused with PBS for 10 minutes through a cannula placed in the right ventricle. Blood and PBS were vented through an incision in the vena cava. […] Washout of intravascular contents was also confirmed histologically after 10 minutes PBS perfusion. After homogenization in 1.5 ml formamide, Evans blue was extracted by incubating the samples at 70° C. for 24 hours, and the concentration of Evans blue was estimated by dual-wavelength spectroscopy to correct for heme E620 nm (corrected)=E620 nm−(1.426*E740 nm+0.030).
# [8] = test system: RhoA; assay: Rho activity pull-down assay; type: cell-based, human; conditions: Ang-2 100 ng/ml
# Protocol: RhoA activity assay was performed and quantified using the RhoA activation assay kit according to the manufacturer's instruction (Cytoskeleton, Denver, Colo.). Lysates from control and Ang-2-treated cells containing equivalent protein concentrations were rotated for 60 minutes with 40 μl slurry of a GST-fusion protein composed of the Rho-binding domain of the specific RhoA effector rhotekin coupled to agarose beads. Beads were collected by centrifugation and washed three times with lysis buffer. Whole cell lysates from both control and Ang-2-treated cells were also run to determine baseline levels of total RhoA protein. Separated proteins were transferred to PVDF and immunoblotted with a monoclonal antibody to RhoA (Santa Cruz Biotechnology, Santa Cruz, Calif.).
molecule,measurement,setting,value
CC(C)=C[C@H](O)C1=C[C@@H](O)[C@@H]2O[C@@H]2C1=O [Panepoxydone],effect on Ang-2 mediated MLC phosphorylation,[1]; panepoxydone added to EC monolayers,marked inhibition
"O=S(=O)(c1cccc2c(I)cccc12)N1CCCNCC1 [ML-7, reference compound]",effect on Ang-2-induced phosphorylation of MLC,[1]; Ang-2 100 ng/ml,partially inhibited
same,reversal of Ang-2 induced thick actin stress fibers and paracellular gaps,[2],partially reversed
"C[C@@H](N)[C@H]1CC[C@H](C(=O)Nc2ccncc2)CC1 [Y27632, reference compound]",effect on Ang-2-induced phosphorylation of MLC,[1]; Ang-2 100 ng/ml,completely abolished
same,reversal of Ang-2 induced thick actin stress fibers and paracellular gaps,[2],completely reversed
"Ang-2: Human recombinant angiopoietin-2 purchased from R&D systems; Tie-2 ligand (protein, listed as Homo sapiens) MWQIVFFTLSCDLVLAAAYNNFRKSMDSIGKKQYQVQHGSCSYTFLLPEMDNCRSSSSPYVSNAVQRDAPLEYDDSVQRLQVLENIMENNTQWLMKLENYIQDNMKKEMVEIQQNAVQNQTAVMIEIGTNLLNQTAEQTRKLTDVEAQVLNQTTRLELQLLEHSLSTNKLEKQILDQTSEINKLQDKNSFLEKKVLAMEDKHIIQLQSIKEEKDQLQVLVSKQNSIIEELEKKIVTATVNNSVLQKQQHDLMETVNNLLTMMSTSNSAKDPTVAKEEQISFRDCAEVFKSGHTTNGIYTLTFPNSTEEIKAYCDMEAGGGGWTIIQRREDGSVDFQRTWKEYKVGFGNPSGEYWLGNEFVSQLTNQQRYVLKIHLKDWEGNEAYSLYEHFYLSSEELNYRIHLKGLTGTAGKISSISQPGNDFSTKDGDNDKCICKCSQMLTGGWWFDACGPSNLNGMYYPQRQNTNKFNGIKWYYWKGSGYSLKATTMMIRPADF",lung wet/dry weight (W/D) ratio,[3],6.13±0.03
same,lung histology,[4],increase in congestion and early extravasation into the interstitium
same,effect on Tie-2 phosphorylation,[5],inhibitory effect
same,MLC phosphorylation on stimulation with Ang-2 alone,"[1]; Ang-2 100 ng/ml, serum-starved HMVECs",elevated at 3 hours and 6 hours
same,increase in permeability (Pa of FITC-albumin) compared with control,[6],approximately 20%
same,extravasated Evans blue in intestines versus vehicle,[7],trend toward increased permeability
same,extravasated Evans blue in livers versus vehicle,[7],twofold increase
same,extravasated Evans blue in lungs versus vehicle,[7],threefold increase
same,actin stress fibers and intercellular gaps,"[2]; recombinant human Ang-2 100 ng/ml alone, HMVECs",induced the formation of thick actin stress fibers and intercellular gaps
same,active form of RhoA (Rho-GTP),[8],increased the active form of RhoA
same,time of peak Rho-GTP,[8],peaking between 30 minutes and 1 hour

# Source: patent US20130252821A1, “METHODS AND COMPOSITIONS FOR THE TREATMENT AND DIAGNOSIS OF DISEASES CHARACTERIZED BY VASCULAR LEAK, HYPOTENSION, OR A PROCOAGULANT STATE” (Beth Israel Deaconess Medical Center, Inc., priority 2005, published 2013)
